The source of these data is publication PMC7112951.

Assay [1] addresses E. coli ClpP (residues 1-193 of mature ClpP), tag removed, used for cryo-EM (Escherichia coli). Briefly: cryo-EM structure; ClpX^∆N pseudohexamer 4 µM and ClpP14 1.8 µM (2 µM in the results) in EM buffer (20 mM HEPES, pH 7.5, 100 mM KCl, 25 mM MgCl2, 5 mM ATPγS), 5 min at 25°C before vitrification; doubly capped complexes analysed.
Assay [2] has as its target [RKH2-AAA]2 single-chain ClpX^ΔN pseudohexamer (Escherichia coli) (UniProt P0A6H1).

Turning to “E. coli ClpP (residues 1-193 of mature ClpP), tag removed, used for cryo-EM (enzyme)”, in assay [1], the stoichiometry N – broadly, the number of molecules, sites or subunits per partner or assembly – was 14.

Regarding ^cp7GFP-ssrA, in assay [2], the KM for steady-state degradation of ^CP7GFP-ssrA, against the parent pseudohexamer stood at 3 fold.
